For three molecules, Kd results are on record in article PMC5440653, “SorLA in Interleukin-6 Signaling and Turnover” (Molecular and Cellular Biology, 2017).

In test [1] the target is SorLA Vps10p domain (human). As to the kind of experiment: SPR; Biacore 3000, CM5 chip; purified soluble receptor immobilized (66 to 86 fmol/mm^2), ligand injected at 5 ul/min, 25°C, 10 mM HEPES, 150 mM NaCl, 1.5 mM CaCl2, 1 mM EGTA, 0.005% Tween 20, pH 7.4; Langmuir 1:1 model, global fitting.
The target in test [2] is T1, soluble SorLA (SorLA ectodomain, luminal part) (human, UniProt Q92673 82-2137).
T1 construct: SorLA, human, luminal (extracellular) part; The introduction says that the propeptide is cut off in late Golgi compartments; also called sSorLA; the entire extracellular part of SorLA
T1 sequence (Q92673 82-2137): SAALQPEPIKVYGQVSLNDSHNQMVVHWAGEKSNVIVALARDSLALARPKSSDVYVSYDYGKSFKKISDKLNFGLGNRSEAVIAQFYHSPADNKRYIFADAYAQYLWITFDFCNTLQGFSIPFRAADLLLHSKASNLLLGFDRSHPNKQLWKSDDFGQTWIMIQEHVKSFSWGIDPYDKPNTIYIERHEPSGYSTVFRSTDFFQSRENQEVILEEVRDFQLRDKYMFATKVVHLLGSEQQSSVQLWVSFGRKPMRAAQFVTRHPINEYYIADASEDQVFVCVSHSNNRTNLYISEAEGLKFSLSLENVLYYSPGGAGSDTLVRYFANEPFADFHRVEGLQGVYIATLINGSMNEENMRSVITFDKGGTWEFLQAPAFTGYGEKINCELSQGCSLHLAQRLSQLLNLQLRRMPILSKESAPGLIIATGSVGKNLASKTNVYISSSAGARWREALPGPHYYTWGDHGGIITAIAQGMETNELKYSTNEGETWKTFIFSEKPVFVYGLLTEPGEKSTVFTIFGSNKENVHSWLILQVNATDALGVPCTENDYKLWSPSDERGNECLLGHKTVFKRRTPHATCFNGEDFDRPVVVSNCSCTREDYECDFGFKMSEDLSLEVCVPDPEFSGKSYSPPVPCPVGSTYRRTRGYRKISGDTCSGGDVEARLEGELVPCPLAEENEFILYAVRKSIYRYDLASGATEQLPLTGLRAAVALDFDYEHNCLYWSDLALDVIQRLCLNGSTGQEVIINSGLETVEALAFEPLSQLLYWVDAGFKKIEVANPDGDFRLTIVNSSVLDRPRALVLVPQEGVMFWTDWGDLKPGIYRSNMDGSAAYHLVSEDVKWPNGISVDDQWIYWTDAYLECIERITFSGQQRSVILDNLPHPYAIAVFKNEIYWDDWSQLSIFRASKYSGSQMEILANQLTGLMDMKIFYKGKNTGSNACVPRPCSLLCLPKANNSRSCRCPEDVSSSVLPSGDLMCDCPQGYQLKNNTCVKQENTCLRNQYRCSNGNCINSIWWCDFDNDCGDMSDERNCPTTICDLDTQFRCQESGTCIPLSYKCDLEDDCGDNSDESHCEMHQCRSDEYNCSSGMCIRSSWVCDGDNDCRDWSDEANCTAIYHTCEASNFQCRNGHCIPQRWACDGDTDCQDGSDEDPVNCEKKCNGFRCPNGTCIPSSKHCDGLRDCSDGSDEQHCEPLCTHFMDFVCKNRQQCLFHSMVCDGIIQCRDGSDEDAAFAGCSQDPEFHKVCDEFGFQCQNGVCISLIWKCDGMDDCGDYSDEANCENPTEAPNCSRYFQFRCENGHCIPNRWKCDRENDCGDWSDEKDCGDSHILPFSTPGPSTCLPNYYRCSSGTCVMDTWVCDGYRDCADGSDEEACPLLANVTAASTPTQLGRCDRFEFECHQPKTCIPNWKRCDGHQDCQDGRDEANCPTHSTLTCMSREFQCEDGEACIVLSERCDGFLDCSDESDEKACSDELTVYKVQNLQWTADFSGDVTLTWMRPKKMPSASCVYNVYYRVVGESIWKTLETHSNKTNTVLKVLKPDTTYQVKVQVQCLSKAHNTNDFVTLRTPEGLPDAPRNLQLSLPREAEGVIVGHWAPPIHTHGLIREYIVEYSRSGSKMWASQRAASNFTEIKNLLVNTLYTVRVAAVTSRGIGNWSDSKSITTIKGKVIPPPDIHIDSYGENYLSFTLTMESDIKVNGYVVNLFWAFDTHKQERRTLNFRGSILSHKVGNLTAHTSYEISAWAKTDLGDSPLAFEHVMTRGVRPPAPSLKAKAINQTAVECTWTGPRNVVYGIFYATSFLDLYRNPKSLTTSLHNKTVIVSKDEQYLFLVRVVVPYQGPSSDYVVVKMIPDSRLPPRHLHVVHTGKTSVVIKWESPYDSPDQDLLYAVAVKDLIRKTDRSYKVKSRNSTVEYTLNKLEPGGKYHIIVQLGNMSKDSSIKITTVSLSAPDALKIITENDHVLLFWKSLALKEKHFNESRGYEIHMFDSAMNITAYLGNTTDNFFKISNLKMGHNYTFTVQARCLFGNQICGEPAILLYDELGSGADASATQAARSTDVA
The description is as above. As to conditions: both partners purified.

The target in test [3] is T2, preformed sSorLA:IL-6 complex (human, UniProt Q92673 82-2137; P05231 30-212).
T2 construct: SorLA, human, luminal (extracellular) part, as m3; interleukin-6, human, recombinant, as m1; source: formed on the sensor chip: immobilized sSorLA exposed to IL-6 (100 nM)
T2 sequence (Q92673 82-2137, chain 1 of 2): as the sequence (Q92673 82-2137) above
T2 sequence (P05231 30-212, chain 2 of 2): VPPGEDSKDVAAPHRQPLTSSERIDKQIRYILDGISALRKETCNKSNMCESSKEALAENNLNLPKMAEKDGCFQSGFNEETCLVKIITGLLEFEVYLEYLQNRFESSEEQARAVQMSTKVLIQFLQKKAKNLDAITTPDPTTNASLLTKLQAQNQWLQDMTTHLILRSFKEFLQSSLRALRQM
The experiment in a line: SPR; immobilized sSorLA first exposed to IL-6 (100 nM), then fresh buffer with 100 nM sIL-6R injected; n = 3. As to conditions: both partners purified.

On to “Interleukin-6 (from UniProt P05231 30-212) (ligand)”, for which the Kd in test [1] was determined as 12 nM. Same read-out and setting: the result for “soluble IL-6 receptor (IL-6R ectodomain) (from UniProt P08887 20-365)” reads 9 nM.

B1: soluble IL-6 receptor (IL-6R ectodomain) (receptor, human, UniProt P08887 20-365, looked up)
chain: LAPRRCPAQEVARGVLTSLPGDSVTLTCPGVEPEDNATVHWVLRKPAAGSHPSRWAGMGRRLLLRSVQLHDSGNYSCYRAGRPAGTVHLLVDVPPEEPQLSCFRKSPLSNVVCEWGPRSTPSLTTKAVLLVRKFQNSPAEDFQEPCQYSQESQKFSCQLAVPEGDSSFYIVSMCVASSVGSKFSKTQTFQGCGILQPDPPANITVTAVARNPRWLSVTWQDPHSWNSSFYRLRFELRYRAERSKTFTTWMVKDLQHHCVIHDAWSGLRHVVQLRAQEEFGQGEWSEWSPEAMGTPWTESRSPPAENEVSTPMQALTTNKDDDNILFRDSANATSLPVQDSSSVPLP
notes: interleukin-6 receptor (alpha chain), human, soluble form consisting only of the ectodomain; also called sIL-6R; recombinant human sIL-6R; source: bought: R&D Systems
In the case of B1, the values for the dissociation constant (Kd) in test [2] and in test [3] were roughly 34 nM and 8 nM, respectively.

By Kd is commonly meant the constant that tells how readily two partners part at equilibrium. Read a low Kd as tighter binding.
